Measurements: the DeepSol protein solubility set

Experiment: soluble on expression in E. coli; label from the status in PepcDB or PDB records

| Sequence | soluble on expression in E. coli |
| --- | --- |
| MGSDKIHHHHHHMMLNQYQIFTMVDNLSLLHHKNDPMNKNDLINTKSTLCPCGSKQLYSKCCEPYHLSHAVAERPEHLMRSRYSAFVLRQFHYLITTHHADYLHGLTEQQLAQGDVQWLGLQVLSSKQESDHGEVTFKAWFIEDKHIDAIYECSSFIKQDGCWFYTHGQQMQTPLPSRNDACICSSGKKFKLCCAKLMR | not soluble |
| MFPKNAWYVACTPDELAGKPLGRRICDEPMVFYRGEDGRVAALEDFCPHRGAPLSLGFVEDGVLVCGYHGLAMGEDGRTRAMPGQRVRGFPCIRRFPVQERHGFVWVWPGAEEQADDALIPRLEWAESPDWAYGGGLYHIHCDYRLMIDNLMDLTHETYVHASSIGQKEIDEAAPTTRVEGDEVITSRHMQNVMAPPFWRMALRGNGLADDVAVDRWQICRFTPPSHVLIEVGVAHAGHGGYQAPAERKAASIVVDFITPESATSIWYFWGMARNFQAHDQALTESIREGQGKIFGEDLEMLESQQRNLLRHPRRDLLKLNIDAGGVQARRIIERLLADER | not soluble |
| MNIQITFTDSVRQGTSAKGNPYTFQEGFLHLEDKPHPLQCQFFVESVIPAGSYQVPYRINVNNGRPELAFDFKAMKRA | soluble |
| MSYRYMRMILMFDMPTDTAEERKAYRKFRKFLLSEGFIMHQFSIYSKLLLNNTANNAMIGRLREHNPNKGNITLLTVTEKQFARMIYLHGERNNCIANSDERLVFLGEAFDES | not soluble |
| MPGEFAKFPEQSAGSHQFRNPLDELTGSNTITNLTAHDFDYFTQSEKNSNLYTSENTSNSNRLNLNQNIPVGTLIDGFELINEASGSGFLDDQLVDVSDYSRDRTTKLDRNRNSPELIVALLQRKVQGIRFSSNYGREEEPCVIEIPPGTMVREMADDDWKMSELKEWFTKSRASSHLRDGLAMPMEELDCTPLICAMITRSDVMRINQDQAIHLLAVSVEKRIEVYQNFEWFNFILNLKIGDSVSVEVDETMRRVPAKVSWIGERPEASGIWYNVDFDGNTSQWPSSNQSYSSSHDRLNRQFDTNWNFEMSGSSSVAPSNSRLYYSPNQMHMPMKGGGVSALYDNRRLVQYSGDEEQYRSAPKPAPRERIIPVSRQQPEIEQRNSRSMKPSEPDYNTYSTHPPRPPPSSSMNYPSMSNTHSLQPSRSKSVQTIQRNQFVRQNPAERNERVESDQLNFRIGDQCIWNNNGAEERGIIKYIGFLKGHKTLYAGVEFKNTIGAGTGVFNREQLFLAKDGHAGFVELSSLESPSSSISSTSTSSSQHRRRLSSSRSQQMPAASGTSISVPVNGRHNVNGKQASIESLSDPPPPPYAPPSPPRASSAAAAHQQPPPLPPKPLARVEDFLIDSYDIGSHVVVRHLGAQRTGVVRWLGEEIDDEGDRIVRSAIVQLDEDVPTAWRRSHDASSYTGSPVVGGVLVPIQSLKHNHSGSSSNGASVVQTSTYPTSQTYNNISRRTEDFGSMDSGVEKQKCGIAKDMQQLVGRQKGIQGYCNSCYLDATLYAMFVQTTCFDFLLEKSIKGSETAQQFQKILAHEIVFPLRKVHYVRADHVMKLRKLLAELMPHVTGLTNEEKDPEEILGFIFSKVFHAEPFIKLIGQNHAKDSQYLVPIVVDDWLGGAATSQHLLERHMRSAQVTFAKAPPVLIMQLPRYGQQKVFDKILPLETIDITPFVAGAVPACSKCQACSEVYCPTCFLTRRVFYSEVIFCRKCFHHTHLLPEIEDHKSRDLYPPGKPQKKPHSHKMVLSAVLCIETSHYVAYVRTSSNQWVFFDSMADREGLSDGFNVPVVRECGNMSDWLSLQGWNRLKDADECGQIKVWELNKNISPNDRKLEIAMFGKQSSLDPLVGRLLSDSYICFYEDASPTSSSSSSSTIISSIKNMMN | not soluble |
| WKITDEQRQYYVNQFKTIQPDLNGFIPGSAAKEFFTKSKLPILELSHIWELSDFDKDGALTLDEFCAAFHLVVARKNGYDLPEKLPESLMPK | soluble |
| MGSDKIHHHHHHMNVHKIVWQEGMLLRPQHLQHNDRYYDNQMKARTQLLGSYNWGFLALELDRQFLNMGKLVISQASGVLPDGSLFELGGNTEPLALDVPPNTSNVPIYLALPLVTGNHIEARRPEQAEVLARYTAYDLEVADSNAGEDSMVQVSCARPDFRLLLGEQQSDQAYVKLKVAVVLDSTPDGVISLDPDFVPSYLHAHASAYLLSCLKEVISMLGHRGDTIAERIRSNGKVGGAEVGDFMMLQLINRTELLLRHYLGLEQVHPEQLYRVLLTMLGDLATFGSESKRPRLDSRYQHSDQGASFRRLMEAIRQVLSMVLEQHAIELPLQARQYGILVSPLHDHKLLGSASFVLAASANCESEELRQRLPAHLKVGAVEHIRQLVNLHLPGIRVKPLPVAPRQIPFHSNKTYFILEPNAEDMAQLERSGGFAFHVSGEFSELELKFWAIRN | not soluble |
| MKILAFETSTEACSVALHVDGAVRERFELAPRRHAELALPWAEQLLAEAGISRRQLDAIAVGRGPGAFSGVRLAIGIVQGIALALDLPVLAISTLQVLALRAPAEASHVLACIDARMGEVYAGLFERQGEALLTLGSEVVCAPEAVLLPQSTPQWAGVGTGLAAGEMPLQQRFAGRLSSVDAAALPHAADLLTLALPAALRGEGVAPERVEPAYLRDNVALTLVEQQAARAAKAAAVPR | soluble |
| MSLGKALEIDLGNRLQALDIDGPTREILRECRPIIEKIIDEAVLDSYNKILAYPEVRDAYAGMKIEDACQAQRTHWIDDVFAGTFAEEQIRNGVEIFSKRQRQGLSLRWYFCFYSNILRCMIAAVYPQYRRDKEKLQRVIGALTRTVMFELEIASTAYMHSAQEQVAVALNDAAGQFEREGHHHHHH | soluble |
| MADEVIEYKFTCSSFYYGRETSQVLNTSITKGLKCVWKTRYASIAEQAFFSWEFDWNELKRLGIDSLAGNITVKSASMSPLNVQIDLRKPTEIVERAFYLRDDDYAYNSYINKTTFEYSFVPYCAQVDESLYEKMFLPSDENDAILVIGNKKLHVCKAFLSYHSSFFRAIFSSAFKEGQMSEIPIKDVTYKDFALMLSTIYPDAVFPNDRTVEKLLEMGDRFIIQSVINHVEYHLLHNTSIGNEKLMWMADRYGMPKLLVKSIQQMNSIEKAKALKSSPDYAKLSKEAKEKILDRLMALI | not soluble |
| MAQINFEGLRELHDCVNYLLHHCPKTRESLSQQGQEKWTEQVSEASLRMLDICNVSKDVMTLVKHSLQDLQLTLRGNESSDVNEKIAAYNRYKNKLKKETLKCLNCLKNMKGNEGRVAMPIEQNLLFVTEVLKEVRRVVVTMVESLFSLGCIPWLEKRSSKGSLSSIFSIRSSYLLDDEWDETAVQSATTRLEAAEITVVELEIELESIFRRLIQTRVSLLNILTN | soluble |
| MGSDKIHHHHHHMQFLKVYSVFGEEVVGCHVRIENLSVACSVVSAGGTHPSEKCVCNHEFSSVSLHQKKHPHLEKLLETSRPIKLDSSSKVLILSDLHMGNGGRRDEFRRNSELVRSMLQDYYLPGGYSLVLNGDIEELFKFSVEDITKVWGHIYDLFLQFEKNGFFWKTYGNHDSDLFEERNYPLSKHLLESIRFQYGDEVMLLFHGHQASILLWETYPLVSRAVVLFLRYVAKPIGIRNFSTAYNSRRRFAIEKSIYEFSNQAKIVSIIGHTHRPLFESLSKVDHLKYKIEELCRQYPSALPEERLAIQERIGELKAMLDACFTEGKKIGLRSGRYNNIAIPSVFNSGCAIGKRGVTALEIDGDRIRLVYWFKEKQGRRFVSDRNSEPEQLGDTGFYRIVLNEDHLDYVFSRIRLLA | not soluble |
| QSDEWRRTTRLLGEILEDTTRPPLERLRRLVLAFVRSECEEAAIRVALSDAAPLYRDADEAREVKAEGARVFQAFLREALPEVAEAERSLAGDLLTTTLGAVGKQFSEQPRSEAEIERYAEALADMLCAYLAALGER | not soluble |
| MFYRDVLIESRERNIFMSKELQIRNSTVDFLVFTRDAREDGIEVRVQNGDVWLTQKAISQLFDVDRSVVTKHLSNIFKEGELDENSTCANFAQVADNGKTYNYKFYSLAAIIAVGYRINSERAMQFRTWATKVLDTFTKQGYVLDKSRLINGQIFDEDYFEHLIAEIQEIRASERRFYQKITDIYATAVDYDKNSQVTREFYATVQNKMHYAVHGNTAAEVIVARANHNKKHMGLKSWKNAPDGKIVKTDVSIAKNYLEKEELAELNEIVTMYLDYATRQARRHIPMTMEDWKTKLDAFLRFNDAEVLQDKGKVTAAIAKEFAESEFEKYRVIQDSLYESDFDKLMNDMEKNDAIH | not soluble |
| MAHHHHHHMGVGLSTVRHAGTAILVPTVSAASTAVLPLSSEERVAALPGTTTPPAAAAAPAPPTAEHTSNPRQRLTDTPAAHAAVSLPHAAPKPHRRFLPYPEEASALATPPPAAVLTAAPVVVEAAVKRHRKGSRVTKPLHPAQASLFTWAEGGQRNATGDAIIAGDHLRRRCCPDAGVVANRSMDCDEDATLVVRSPDEGRRSGTSLQSEGGLYGEKGQRQFAASGQWSPSPASPEAEEVAATVCASVNATAVENAPSGPAAPLLSSAFTAYRPVARSASPGPALGQYEGLPLTSVQQVLESKHKVYRICLTGGPCAGKSTMLSAIQAKIPQRTGFRVMCVPEAATLLVTGGMQWDGDLTVPQQLGLLRTQLALEDQFYALAVASHVPTVIVSDRGTMDGRAFCTDAQFQEILRGVGSTIDVLRDRYDAVIHMVTAADGAEEFYNLDNPARYEDLDGARASDLRLQRMYVGHPMFRLLDNSTTFEDKIERGLQVVSQVVHKEQCAPALPTYYLVRRCPAELPVASATYTTYTTVLGNSQISDIRLLVKREMADGSTMHFFKSVRDAPSTVPSSRAPPRATSHASSGASFRSSVNAPTVSTASPTQQRTRAPNASAAASTRACASTATAPALRW | not soluble |
| MNQRLVYVVSDSGGETAELVVKAAASQFHASPIQVKRVPYVEDKTTLAEVVALAKMNRAIIAFTLVVPEMREFLLAEAAREGVVAYDIIGPLIEKMSHLFQLTPRYEPGQVRVLDEDYFKKIEAIEFAVKYDDGRDPRGILRADIVLIGVSRTSKTPLSQYLAHKRLKVANVPIVPEVEPPEQLFRVGPGKCFGLKISPDKLLSIRRERLKSLGLNDQAIYANMDRIKEELAYFDEVVKKIGCDVIDVTNKAVEETASIIMKKLKR | not soluble |
| MSTRSARIVVVSSRAAAGVYTDDCGPIIAGWLEQHGFSSVQPQVVADGNPVGEALHDAVNAGVDVIITSGGTGISPTDTTPEHTVAVLDYVIPGLADAIRRSGLPKVPTSVLSRGVCGVAGRTLIINLPGSPGGVRDGLGVLADVLDHALEQIAGGDHPR | soluble |
| EVQLVESGGGLVQPGGSLRLSCAASGFNIKEYYMHWVRQAPGKGLEWVGLIDPEQGNTIYDPKFQDRATISADNSKNTAYLQMNSLRAEDTAVYYCARDTAAYFDYWGQGTLVTVSSASTKGPSVFPLAPSSKSTSGGTAALGCLVKDYFPEPVTVSWNSGALTSGVHTFPAVLQSSGLYSLSSVVTVPSSSLGTQTYICNVNHKPSNTKVDKKVEPKSCDKTHT | soluble |
| MGSDKIHHHHHHMLYQLHEFQRSMLHPLTAWAQATAKTFTNPLSPLSLVPGAPRLAAGYELLYRLGKEYEKPAFDIKSVRSNGREIPIVEQTIMEKPFCRLVRFKRYADDPDTIKLLKDEPVVLVAAPLSGHHATLLRDTVRTLLQDHKVYVTDWVDARMVPAEHGPFHLSDYIYYIQEFIRHIGADKLHVISVCQPTVPVLAAISLMASAGEKTPLTMTMMGGPIDARKSPTAVNSLATNKSFEWFENNVIYTVPANYPGHGRRVYPGFLQHAGFVAMNPDRHLSSHYDYYLSLIQGDADDAEAHVRFYDEYNAVLDMAAEYYLDTIREVFQEFRLANGTWTIDGNPVRPQDIKGTALLTVEGELDDISGAGQTSAAHDLCAGIPQTHKHHLSAAKCGHYGIFSGRRWRDEIYPQLRDFIRKYR | not soluble |
| QMTLTELRAFLDQMNNLPCAMHQIGDVKGVLEQVEAYQAEAREALASLPSSPGLLQSLLERGRQLGVEVPEAQQLQRQVEQARWLDEVKRTLAPSARRGTLAVMRGLLVAGASVAPSPAVDKAQAELQELLTIAERWEEKAHLCLEARQKHPPATLEAIIREAENIPVHLPNIQALKEALAKARAWIADVDEIQNGDHYPCLDDLEGLVAVGRDLPVGLEELRQLELQVLTAHSWREKASKTFLKKNS | not soluble |
